# Measured values: US20210015937A1 (CRESCENDO BIOLOGICS, published 2021)
# T1: human LAG-3 expressed on cells (human, UniProt P18627 23-525)
# T1 sequence: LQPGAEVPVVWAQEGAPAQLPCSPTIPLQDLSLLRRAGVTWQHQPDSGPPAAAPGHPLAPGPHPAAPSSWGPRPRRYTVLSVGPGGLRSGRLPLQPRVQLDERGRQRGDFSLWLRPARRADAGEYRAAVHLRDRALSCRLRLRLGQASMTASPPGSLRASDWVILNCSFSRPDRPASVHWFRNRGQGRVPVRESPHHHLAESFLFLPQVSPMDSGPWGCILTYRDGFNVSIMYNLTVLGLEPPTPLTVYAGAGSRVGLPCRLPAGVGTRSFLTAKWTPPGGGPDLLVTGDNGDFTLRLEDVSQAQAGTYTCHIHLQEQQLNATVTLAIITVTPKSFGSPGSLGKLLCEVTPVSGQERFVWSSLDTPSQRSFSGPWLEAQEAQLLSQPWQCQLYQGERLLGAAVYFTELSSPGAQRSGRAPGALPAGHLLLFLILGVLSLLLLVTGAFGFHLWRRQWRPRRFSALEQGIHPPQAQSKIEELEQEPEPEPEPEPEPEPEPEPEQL
# T2: recombinant human LAG-3-Fc (human, UniProt P18627 23-450)
# T2 construct: also called human LAG-3 (R&D Systems cat no. 2319-L3); LAG3 antigen
# T2 sequence: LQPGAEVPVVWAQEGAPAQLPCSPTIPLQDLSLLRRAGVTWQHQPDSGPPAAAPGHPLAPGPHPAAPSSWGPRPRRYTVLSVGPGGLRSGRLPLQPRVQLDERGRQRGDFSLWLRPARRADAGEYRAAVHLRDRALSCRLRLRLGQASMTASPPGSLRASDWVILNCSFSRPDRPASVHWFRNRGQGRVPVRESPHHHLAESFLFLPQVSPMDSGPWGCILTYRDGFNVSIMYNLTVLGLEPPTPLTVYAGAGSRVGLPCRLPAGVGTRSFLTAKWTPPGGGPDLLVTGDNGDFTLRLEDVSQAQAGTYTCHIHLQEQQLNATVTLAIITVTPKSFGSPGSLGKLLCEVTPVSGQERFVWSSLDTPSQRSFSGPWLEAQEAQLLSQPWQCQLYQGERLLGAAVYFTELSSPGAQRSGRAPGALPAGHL
# What was measured:
# [1] = molecular target: T1, human LAG-3 expressed on cells; experiment: cell-based or functional assay
# [2] = molecular target: T2, recombinant human LAG-3-Fc; experiment: BLI (Octet); human LAG-3-Fc captured on protein G biosensors, 1:1 fit
# Method: Binding kinetics for multi-valent and bispecific VH were also measured in real-time bio-layer interferometer based biosensor Octet (ForteBio). […] All the binding studies were performed in HBS-ET Octet kinetics buffer. Biosensors were washed in Octet kinetics buffer in between different steps. […] The contact time for each of the association steps was 150 seconds and the dissociation step was 400 seconds. […] To compare the constructs, kinetic association (kₐ) and dissociation (kd) rate constants were determined by processing and fitting the data to a 1:1 binding model using ForteBio Analysis software.
# [3] = molecular target: T2, recombinant human LAG-3-Fc; experiment: HTRF binding; His-tagged construct with LAG-3-Fc, anti-human-Fc cryptate and anti-His-D2
# [4] = molecular target: T3, human PD-1 expressed on cells (human, UniProt Q15116 25-288); experiment: cell-based or functional assay
# [5] = molecular target: T3, human PD-1 expressed on cells; experiment: cell-based or functional assay; remark: listed apart in the source
# [6] = molecular target: T4, recombinant human PD-1 Fc chimera (human, UniProt Q15116 25-167); experiment: HTRF binding; His-tagged construct with PD-1-Fc, anti-human-Fc cryptate and anti-His-D2
# T4 construct: Bought Fc chimera; also called human PD-1 (R&D systems cat no. 1086-PD); PD1 antigen
# Method: Binding to PD-1 was measured by HTRF (homogeneous time resolved fluorescence). Serially diluted HIS-tagged constructs were prepared in assay buffer containing PBS, 0.1% BSA and 0.4M Potassium Fluoride. […] Time-resolved fluorescent emission at 620 nm and 665 nm was measured following excitation at 337 nm on the BMG PHERAstar plate reader. The HTRF ratio were calculated ((665 nm emission/620 nm emission)*10000) and the data corrected for (non-specific binding) to give the specific binding signal. EC50 were calculated from the titration curve (table 8 below).
# [7] = molecular target: T5, LAG-3 and PD-1 on activated human T cells (human, UniProt P18627 23-525; Q15116 25-288); experiment: flow cytometry (Intellicyte) on anti-CD3/anti-CD28 stimulated human CD4+ T cells; His-tagged VH detected with anti-HIS biotin and streptavidin AlexaFluor488
# T5 construct: also called huCD4+ T cells; huCD8+ T cells
# Method: (§1) FIG. 2. CD4+ T cells were stimulated with anti-CD3 and anti-CD28. Cells were stained with HIS tagged VH plus anti-HIS tag labelled with biotin and streptavidin AlexaFluor488. Cells were analysed using Intellicyte® cytometer.
# (§2) Binding onto human activated T cells was measured by cytometry. PBMC or magnetically isolated T cells were isolated from leukocytes cones and cells were incubated in 96 well plates coated with anti-CD3 (OKT3) at 5 μg/ml. Anti-CD28 (CD28.2) was added at 1 μg/ml in RPMI media and foetal bovine serum. After 72-96 hours, cells were harvested and stained using standard flow cytometry methods. […] Fluorescently labelled anti-CD4 and anti-CD8 were included in PBMC cultures and a live/dead dye. Stained cells were analysed using the IQue cytometer (Intellicyte). EC50 were calculated from the titration curve of median fluorescence of Humabody, gating on CD4+ or CD8+ cells if using mixed cells.
# [8] = molecular target: T2, recombinant human LAG-3-Fc; experiment: competition ELISA; LAG-3-Fc pre-incubated with VH, binding to coated Galectin-3
# From the text: (§3) The plate was blocked with 3% Marvel skimmed milk powder in PBS. […] Wash steps were done 3 times with PBS 0.05% Tween. Colour was developed using TMB and 0.5M sulphuric acid solution.
# [9] = molecular target: T2, recombinant human LAG-3-Fc; experiment: competition ELISA; LAG-3-Fc pre-incubated with VH, binding to coated LSECtin
# From the text: as §3
# [10] = molecular target: T3, human PD-1 expressed on cells; experiment: FMAT inhibition of human Fc tagged PD-L1 binding to CHO human PD-1 cells
# Method: All reagents and serially diluted VH were prepared in FMAT assay buffer. […] Plates were incubated for 2 hours at room temperature then fluorescence measured in the FL2 (502 nm-537 nm) and FL5 (677-800 nm) channels on the Mirrorball plate reader (TTP) following excitation at 488 nm and 640 nm. Data was expressed as a % of the total binding control (i.e. % control) after subtraction of the background signal determined from the non-specific binding control wells.
# [11] = molecular target: T3, human PD-1 expressed on cells; experiment: flow cytometry (Intellicyte) on anti-CD3/anti-CD28 stimulated human CD4+ T cells; His-tagged VH detected with anti-HIS biotin and streptavidin AlexaFluor488
# Method: as §1, §2
# T3 sequence (Q15116 25-288 limits assumed): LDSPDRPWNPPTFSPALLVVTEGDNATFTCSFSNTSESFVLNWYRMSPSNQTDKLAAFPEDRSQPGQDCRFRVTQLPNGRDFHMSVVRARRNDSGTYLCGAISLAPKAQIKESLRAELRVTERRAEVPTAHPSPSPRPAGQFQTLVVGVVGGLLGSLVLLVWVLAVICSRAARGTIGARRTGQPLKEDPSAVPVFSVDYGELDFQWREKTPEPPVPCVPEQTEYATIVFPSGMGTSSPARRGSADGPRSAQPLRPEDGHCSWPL
# T4 sequence (Q15116 25-167 limits assumed, change not shown): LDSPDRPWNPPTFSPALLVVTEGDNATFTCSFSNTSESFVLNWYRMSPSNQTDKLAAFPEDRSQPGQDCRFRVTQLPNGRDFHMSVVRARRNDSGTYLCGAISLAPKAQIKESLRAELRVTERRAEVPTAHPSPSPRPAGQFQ
# T5 sequence (Q15116 25-288 limits assumed, one chain of several): as the sequence (Q15116 25-288 limits assumed) above
"EC50 (M), NFAT-Luciferase Reporter Gene assay (LAG-3:MHCII) [1] [M]",Kd [2] [nM],koff [2] [s⁻¹],kon [2] [M⁻¹ s⁻¹],EC50 [3] [nM],"potency in the PD-1:PD-L1 NFAT-luciferase reporter assay, fold lower than monoclonal antibodies [4] [fold]","EC50 (M), NFAT-Luciferase Reporter Gene assay (PD-1:PD-L1) [5] [M]",EC50 [6] [nM],EC50 (read off the curve) [7] [nM],IC50 [8] [nM],IC50 [9] [nM],IC50 [10] [nM],EC50 (read off the curve) [11] [nM],Binder
3.3e-09,0.399,0.000305,764000,0.51,> 30,4.2e-08,0.59,,,,,,"VH1.1-6GS-VH1.1-6GS-VH2.63-His6 (bispecific antibody, Single-chain fusion of two anti-LAG-3 VH 1.1 and one anti-PD-1 VH 2.63; The entry includes AAA-His6; also called 1.1-6GS-1.1-6GS-2.63) EVQLVESGGGVVRPGGSLRLSCSASGFTFDDYGMSWVRQAPGKGLEWVSGIHWNGGNSGYADSVKGRFTISRDNAKNSLYLQMNSLRAEDTALYYCARIPREDCSSASCYTDAIDFWGPGTMVTVSSGGGGSGGGGSGGGGSGGGGSGGGGSGGGGSEVQLVESGGGVVRPGGSLRLSCSASGFTFDDYGMSWVRQAPGKGLEWVSGIHWNGGNSGYADSVKGRFTISRDNAKNSLYLQMNSLRAEDTALYYCARIPREDCSSASCYTDAIDFWGPGTMVTVSSGGGGSGGGGSGGGGSGGGGSGGGGSGGGGSEVQLVESGGGLVKPGGSLRLSCAASGFTFSDSSMTWMRQAPGKGLEWVSYISSGGGVKFYTDSVKGRFTISRDNAKNSLYLQMNSLRADDTAVYYCAREAPLRLGESPHDAFDISGQGTMVTVSSAAAHHHHHH"
3.2e-09,0.397,0.000303,762000,0.78,> 30,3e-08,0.6,~2,38,54,,,"VH1.1-6GS-VH1.1-9GS-VH2.63-His6 (bispecific antibody, Single-chain fusion of two anti-LAG-3 VH 1.1 and one anti-PD-1 VH 2.63; The entry includes AAA-His6; also called 1.1-6GS-1.1-9GS-2.63) EVQLVESGGGVVRPGGSLRLSCSASGFTFDDYGMSWVRQAPGKGLEWVSGIHWNGGNSGYADSVKGRFTISRDNAKNSLYLQMNSLRAEDTALYYCARIPREDCSSASCYTDAIDFWGPGTMVTVSSGGGGSGGGGSGGGGSGGGGSGGGGSGGGGSEVQLVESGGGVVRPGGSLRLSCSASGFTFDDYGMSWVRQAPGKGLEWVSGIHWNGGNSGYADSVKGRFTISRDNAKNSLYLQMNSLRAEDTALYYCARIPREDCSSASCYTDAIDFWGPGTMVTVSSGGGGSGGGGSGGGGSGGGGSGGGGSGGGGSGGGGSGGGGSGGGGSEVQLVESGGGLVKPGGSLRLSCAASGFTFSDSSMTWMRQAPGKGLEWVSYISSGGGVKFYTDSVKGRFTISRDNAKNSLYLQMNSLRADDTAVYYCAREAPLRLGESPHDAFDISGQGTMVTVSSAAAHHHHHH"
,,,,,,,,,,,1.82,,"VH 2.80 (VHH, Human VH single domain antibody against PD-1) VHH: EVQLVESGGGLVKPGGSLRLSCAASGFTFSDSSMTWMRQAPGKGLEWVSYISSGGGVKFYADSVKGRFTISRDNAKNSLYLQMNSLRAEDTAVYYCAREAPLRLGESPHDAFDISGQGTMVTVSS"
,,,,,,1.4e-08,,,,,2.8,,"VH 2.92 (VHH, Human VH single domain antibody against PD-1) VHH: EVQLVESGGGLVKPGGSLRLSCAASGFTFSDESMTWMRQAPGKGLEWVSYISSGGGVKFYADSVKGRFTISRDNAKNSLYLQMNSLRAEDTAVYYCAREAPLRLGESPHDAFDISGQGTMVTVSS"
,,,,,,1.2e-08,,,,,4.5,~2,"VH 2.63 (VHH, Human VH single domain antibody against PD-1) VHH: EVQLVESGGGLVKPGGSLRLSCAASGFTFSDSSMTWMRQAPGKGLEWVSYISSGGGVKFYTDSVKGRFTISRDNAKNSLYLQMNSLRADDTAVYYCAREAPLRLGESPHDAFDISGQGTMVTVSS"
